US20140274782A1, “AFFINITY REAGENTS AND METHODS FOR DETECTION, PURIFICATION, AND PROTEOMIC ANALYSIS OF METHYLATED PROTEINS” (The Board of Trustees of the Leland Stanford Junior …, priority 2013, published 2014)

What was measured:
3×MBT domain of L3MBTL1 = assay: Triple SILAC pull-down, 3xMBT/3xMBTD355N ratio (cytoplasmic, nuclear and chromatin fractions of 293T cells); assay type: binding, human; conditions: SILAC ratio 3xMBT vs 3xMBTD355N pull-down, 293T cells, all values in log base 2; for 3xMBT/D355N UNC Heavy: experiment with UNC0638 in heavy SILAC media; for 3xMBT/D355N UNC Light: experiment with UNC0638 in light SILAC media;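 for all read-outs here: proteins quantified with MaxQuant, requiring at least two unique peptides and quantification in both label directions, normalized to the mean of proteins from a digested loading control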
G9a and GLP = biological target: T1, G9a and GLP (Homo sapiens, UniProt Q96KQ7+Q9H9B1); assay: Triple SILAC pull-down after UNC0638 treatment of 293T cells, DMSO/UNC0638 ratio of protein captured by 3×MBT; assay type: cell-based; design: cells were treated for 24 hours with UNC0638 at 2.5 μM or DMSO vehicle control; endogenous in cells; host or cells: HEK 293T; conditions: all values in log base 2; for Relative to UNC0638 UNC Heavy / Relative to UNC0638 UNC Light: SILAC ratio DMSO relative to UNC0638, pull-down with 3xMBT; for Relative to UNC0638 UNC Heavy: UNC0638 in heavy SILAC media; for Relative to UNC0638 UNC Light: UNC0638 in light SILAC media; for Relative to UNC0638 Average: average of UNC Light and UNC Heavy experiments;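 for all read-outs here: mass spectrometry (Q-Exactive) SILAC quantitation, DMSO/UNC0638 ratio computed after subtracting 3×MBTD355N mutant pull-down background, only proteins with at least twofold 3×MBT over mutant signal considered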
T1 sequence (Q96KQ7 2-1210 limits assumed): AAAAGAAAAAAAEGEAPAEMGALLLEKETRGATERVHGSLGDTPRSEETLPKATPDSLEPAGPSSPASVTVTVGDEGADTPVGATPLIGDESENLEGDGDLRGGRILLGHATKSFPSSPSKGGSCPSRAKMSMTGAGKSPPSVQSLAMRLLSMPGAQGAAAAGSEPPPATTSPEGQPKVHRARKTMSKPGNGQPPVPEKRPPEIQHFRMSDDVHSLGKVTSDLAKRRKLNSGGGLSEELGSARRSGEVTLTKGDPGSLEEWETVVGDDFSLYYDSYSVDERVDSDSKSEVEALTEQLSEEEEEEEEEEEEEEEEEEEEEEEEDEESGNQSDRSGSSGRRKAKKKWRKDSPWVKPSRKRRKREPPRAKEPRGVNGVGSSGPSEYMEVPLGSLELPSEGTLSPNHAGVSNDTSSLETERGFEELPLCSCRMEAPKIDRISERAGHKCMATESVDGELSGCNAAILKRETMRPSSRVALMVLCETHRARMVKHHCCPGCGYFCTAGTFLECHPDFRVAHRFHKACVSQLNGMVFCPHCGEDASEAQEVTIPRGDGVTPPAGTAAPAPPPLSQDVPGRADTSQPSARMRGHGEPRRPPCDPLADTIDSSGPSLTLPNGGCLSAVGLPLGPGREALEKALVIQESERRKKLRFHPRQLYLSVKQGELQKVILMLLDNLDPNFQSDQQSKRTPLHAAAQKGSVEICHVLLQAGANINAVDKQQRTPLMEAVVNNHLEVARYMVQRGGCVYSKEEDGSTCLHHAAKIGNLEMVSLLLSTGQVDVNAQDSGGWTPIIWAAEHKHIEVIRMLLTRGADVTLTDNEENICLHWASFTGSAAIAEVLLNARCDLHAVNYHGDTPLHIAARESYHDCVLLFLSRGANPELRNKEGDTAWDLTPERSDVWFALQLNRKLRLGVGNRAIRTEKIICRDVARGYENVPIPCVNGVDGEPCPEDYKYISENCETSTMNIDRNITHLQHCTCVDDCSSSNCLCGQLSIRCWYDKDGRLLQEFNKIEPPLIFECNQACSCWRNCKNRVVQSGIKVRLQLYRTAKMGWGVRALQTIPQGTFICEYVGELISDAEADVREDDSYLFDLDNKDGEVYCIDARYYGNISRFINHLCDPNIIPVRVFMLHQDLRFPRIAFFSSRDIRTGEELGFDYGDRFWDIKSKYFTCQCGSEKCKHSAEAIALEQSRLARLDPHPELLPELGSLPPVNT
T1 sequence (Q9H9B1 2-1298 limits assumed): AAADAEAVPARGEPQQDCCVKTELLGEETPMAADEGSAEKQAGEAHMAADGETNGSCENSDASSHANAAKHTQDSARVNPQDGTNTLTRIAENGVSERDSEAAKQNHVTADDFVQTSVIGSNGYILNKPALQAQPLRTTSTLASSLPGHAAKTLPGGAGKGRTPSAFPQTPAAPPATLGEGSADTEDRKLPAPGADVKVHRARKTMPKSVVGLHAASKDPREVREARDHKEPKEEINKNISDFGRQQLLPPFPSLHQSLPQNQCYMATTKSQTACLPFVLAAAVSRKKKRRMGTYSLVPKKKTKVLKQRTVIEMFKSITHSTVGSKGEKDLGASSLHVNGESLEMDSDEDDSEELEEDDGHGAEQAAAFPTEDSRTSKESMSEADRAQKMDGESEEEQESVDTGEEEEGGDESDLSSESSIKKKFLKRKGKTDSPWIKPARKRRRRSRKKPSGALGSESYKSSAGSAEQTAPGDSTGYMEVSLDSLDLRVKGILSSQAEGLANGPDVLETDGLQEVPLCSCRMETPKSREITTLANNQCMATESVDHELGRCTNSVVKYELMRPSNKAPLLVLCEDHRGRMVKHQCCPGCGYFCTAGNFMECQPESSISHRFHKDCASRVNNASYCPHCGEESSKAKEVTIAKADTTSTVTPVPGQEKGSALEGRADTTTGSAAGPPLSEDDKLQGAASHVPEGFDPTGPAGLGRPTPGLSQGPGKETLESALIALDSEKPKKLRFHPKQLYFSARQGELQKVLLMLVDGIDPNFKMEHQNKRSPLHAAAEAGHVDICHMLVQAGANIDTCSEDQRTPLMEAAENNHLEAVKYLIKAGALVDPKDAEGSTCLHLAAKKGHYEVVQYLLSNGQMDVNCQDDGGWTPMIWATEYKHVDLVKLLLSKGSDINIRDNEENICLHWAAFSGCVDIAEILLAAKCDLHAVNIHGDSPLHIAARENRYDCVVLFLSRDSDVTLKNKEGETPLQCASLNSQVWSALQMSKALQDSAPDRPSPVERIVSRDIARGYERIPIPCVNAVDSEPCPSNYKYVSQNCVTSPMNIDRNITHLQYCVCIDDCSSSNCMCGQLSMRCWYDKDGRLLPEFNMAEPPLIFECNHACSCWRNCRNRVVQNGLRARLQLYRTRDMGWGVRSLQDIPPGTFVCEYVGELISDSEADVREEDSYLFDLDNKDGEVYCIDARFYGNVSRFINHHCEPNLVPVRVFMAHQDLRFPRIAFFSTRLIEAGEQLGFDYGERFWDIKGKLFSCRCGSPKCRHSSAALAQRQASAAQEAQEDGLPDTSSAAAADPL

B1: TRIM28 (protein, UniProt Q13263 2-835, looked up)
Transcription intermediary …: AASAAAASAAAASAASGSPGPGEGSAGGEKRSTAPSAAASASASAAASSPAGGGAEALELLEHCGVCRERLRPEREPRLLPCLHSACSACLGPAAPAAANSSGDGGAAGDGTVVDCPVCKQQCFSKDIVENYFMRDSGSKAATDAQDANQCCTSCEDNAPATSYCVECSEPLCETCVEAHQRVKYTKDHTVRSTGPAKSRDGERTVYCNVHKHEPLVLFCESCDTLTCRDCQLNAHKDHQYQFLEDAVRNQRKLLASLVKRLGDKHATLQKSTKEVRSSIRQVSDVQKRVQVDVKMAILQIMKELNKRGRVLVNDAQKVTEGQQERLERQHWTMTKIQKHQEHILRFASWALESDNNTALLLSKKLIYFQLHRALKMIVDPVEPHGEMKFQWDLNAWTKSAEAFGKIVAERPGTNSTGPAPMAPPRAPGPLSKQGSGSSQPMEVQEGYGFGSGDDPYSSAEPHVSGVKRSRSGEGEVSGLMRKVPRVSLERLDLDLTADSQPPVFKVFPGSTTEDYNLIVIERGAAAAATGQPGTAPAGTPGAPPLAGMAIVKEEETEAAIGAPPTATEGPETKPVLMALAEGPGAEGPRLASPSGSTSSGLEVVAPEGTSAPGGGPGTLDDSATICRVCQKPGDLVMCNQCEFCFHLDCHLPALQDVPGEEWSCSLCHVLPDLKEEDGSLSLDGADSTGVVAKLSPANQRKCERVLLALFCHEPCRPLHQLATDSTFSLDQPGGTLDLTLIRARLQEKLSPPYSSPQEFAQDVGRMFKQFNKLTEDKADVQSIIGLQRFFETRMNEAFGDTKFSAVLVEPPPMSLPGAGLSSQELSGGPGDGP
- 3xMBT/D355N UNC Heavy (3×MBT domain of L3MBTL1): 1.05 log base 2
- 3xMBT/D355N UNC Light (3×MBT domain of L3MBTL1): 1.28 log base 2
- Relative to UNC0638 UNC Heavy (G9a and GLP): 0.01 log base 2
- Relative to UNC0638 UNC Light (G9a and GLP): 0.10 log base 2
- Relative to UNC0638 Average (G9a and GLP): 0.06 log base 2

B2: TK1 (protein, UniProt P04183 2-234, looked up)
Thymidine kinase, cytosolic: SCINLPTVLPGSPSKTRGQIQVILGPMFSGKSTELMRRVRRFQIAQYKCLVIKYAKDTRYSSSFCTHDRNTMEALPACLLRDVAQEALGVAVIGIDEGQFFPDIVEFCEAMANAGKTVIVAALDGTFQRKPFGAILNLVPLAESVVKLTAVCMECFREAAYTKRLGTEKEVEVIGGADKYHSVCRLCYFKKASGQPAGPDNKENCPVPGKPGEAVAARKLFAPQQILQCSPAN
- 3xMBT/D355N UNC Heavy (3×MBT domain of L3MBTL1): 2.89 log base 2
- 3xMBT/D355N UNC Light (3×MBT domain of L3MBTL1): 2.36 log base 2
- Relative to UNC0638 UNC Heavy (G9a and GLP): 0.63 log base 2
- Relative to UNC0638 UNC Light (G9a and GLP): −0.50 log base 2
- Relative to UNC0638 Average (G9a and GLP): 0.07 log base 2

B3: CKAP2 (protein, UniProt Q8WWK9 1-683, looked up)
Cytoskeleton-associated …: MSTPAVPQDLQLPPSQRAQSAFKEQRRQKLKEHLLRRKTLFAYKQENEMLSSSRDQRVVTSEDQVQEGTKVLKLKTKMADKENMKRPAESKNNTVVGKHCIPLKPSNELTNSTVVIDTHKPKDSNQTPHLLLTEDDPQSQHMTLSQAFHLKNNSKKKQMTTEKQKQDANMPKKPVLGSYRGQIVQSKINSFRKPLQVKDESSAATKKLSATIPKATKPQPVNTSSVTVKSNRSSNMTATTKFVSTTSQNTQLVRPPIRSHHSNTRDTVKQGISRTSANVTIRKGPHEKELLQSKTALSSVKTSSSQGIIRNKTLSRSIASEVIARPASLSNDKLMEKSEPVDQRRHTAGKAIVDSRSAQPKETSEERKARLSEWKAGKGRVLKRPPNSVVTQHEPAGQNEKPVGSFWTTMAEEDEQRLFTEKVNNTFSECLNLINEGCPKEDILVTLNDLIKNIPDAKKLVKYWICLALIEPITSPIENIIAIYEKAILAGAQPIEEMRHTIVDILTMKSQEKANLGENMEKSCASKEEVKEVSIEDTGVDVDPEKLEMESKLHRNLLFQDCEKEQDNKTKDPTHDVKTPNTETRTSCLIKYNVSTTPYLQSVKKKVQFDGTNSAFKELKFLTPVRRSRRLQEKTSKLPDMLKDHYPCVSSLEQLTELGRETDAFVCRPNAALCRVYYEADTT
- 3xMBT/D355N UNC Heavy (3×MBT domain of L3MBTL1): −1.81 log base 2
- 3xMBT/D355N UNC Light (3×MBT domain of L3MBTL1): −1.33 log base 2
- Relative to UNC0638 UNC Heavy (G9a and GLP): −0.12 log base 2
- Relative to UNC0638 UNC Light (G9a and GLP): 0.05 log base 2
- Relative to UNC0638 Average (G9a and GLP): −0.03 log base 2

B4: NOSIP (protein, UniProt Q9Y314 1-301, looked up)
Nitric oxide …: MTRHGKNCTAGAVYTYHEKKKDTAASGYGTQNIRLSRDAVKDFDCCCLSLQPCHDPVVTPDGYLYEREAILEYILHQKKEIARQMKAYEKQRGTRREEQKELQRAASQDHVRGFLEKESAIVSRPLNPFTAKALSGTSPDDVQPGPSVGPPSKDKDKVLPSFWIPSLTPEAKATKLEKPSRTVTCPMSGKPLRMSDLTPVHFTPLDSSVDRVGLITRSERYVCAVTRDSLSNATPCAVLRPSGAVVTLECVEKLIRKDMVDPVTGDKLTDRDIIVLQRGGTGFAGSGVKLQAEKSRPVMQA
- 3xMBT/D355N UNC Heavy (3×MBT domain of L3MBTL1): 1.54 log base 2
- 3xMBT/D355N UNC Light (3×MBT domain of L3MBTL1): 2.28 log base 2
- Relative to UNC0638 UNC Heavy (G9a and GLP): 0.03 log base 2
- Relative to UNC0638 UNC Light (G9a and GLP): −0.11 log base 2
- Relative to UNC0638 Average (G9a and GLP): −0.04 log base 2

B5: TUBA1C (protein, UniProt Q9BQE3 1-449, looked up)
Tubulin alpha-1C chain: MRECISIHVGQAGVQIGNACWELYCLEHGIQPDGQMPSDKTIGGGDDSFNTFFSETGAGKHVPRAVFVDLEPTVIDEVRTGTYRQLFHPEQLITGKEDAANNYARGHYTIGKEIIDLVLDRIRKLADQCTGLQGFLVFHSFGGGTGSGFTSLLMERLSVDYGKKSKLEFSIYPAPQVSTAVVEPYNSILTTHTTLEHSDCAFMVDNEAIYDICRRNLDIERPTYTNLNRLISQIVSSITASLRFDGALNVDLTEFQTNLVPYPRIHFPLATYAPVISAEKAYHEQLTVAEITNACFEPANQMVKCDPRHGKYMACCLLYRGDVVPKDVNAAIATIKTKRTIQFVDWCPTGFKVGINYQPPTVVPGGDLAKVQRAVCMLSNTTAVAEAWARLDHKFDLMYAKRAFVHWYVGEGMEEGEFSEAREDMAALEKDYEEVGADSADGEDEGEEY
- 3xMBT/D355N UNC Heavy (3×MBT domain of L3MBTL1): 0.42 log base 2
- 3xMBT/D355N UNC Light (3×MBT domain of L3MBTL1): 1.45 log base 2
- Relative to UNC0638 UNC Heavy (G9a and GLP): −0.83 log base 2
- Relative to UNC0638 UNC Light (G9a and GLP): 0.93 log base 2
- Relative to UNC0638 Average (G9a and GLP): 0.05 log base 2
